Reference: PMC7112362

Target: MERS-CoV papain-like cysteine protease (PLpro), His-tagged (MERS-CoV)
Test: activity-based probe labelling

Substance | percent of the protease labeled after 15 min [%]
K48-linked diUb "proximal" activity-based probe (from UniProt P0CG47 1-75; P0CG47 1-75) | 50
K48-linked diUb "in-between" activity-based probe (from UniProt P0CG47 1-75; P0CG47 1-76) | 50
